Measurements from US20190106501A1 (FRED HUTCHINSON CANCER RESEARCH CENTER, published 2019).

Biological target: T1, CD20 (human, UniProt P11836 1-297)
T1 sequence (looked up): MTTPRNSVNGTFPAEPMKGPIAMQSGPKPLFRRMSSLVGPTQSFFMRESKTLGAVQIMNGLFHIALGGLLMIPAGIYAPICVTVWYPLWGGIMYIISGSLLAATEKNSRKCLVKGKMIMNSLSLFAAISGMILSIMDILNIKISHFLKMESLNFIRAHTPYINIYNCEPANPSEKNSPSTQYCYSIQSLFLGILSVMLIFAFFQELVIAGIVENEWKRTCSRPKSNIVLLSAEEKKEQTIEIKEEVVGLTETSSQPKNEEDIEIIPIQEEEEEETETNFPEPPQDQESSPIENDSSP
Experiment: cell-based or functional assay

B1: rituximab (antibody, V domains shown)
VH: QVQLQQPGAELVKPGASVKMSCKASGYTFTSYNMHWVKQTPGRGLEWIGAIYPGNGDTSYNQKFKGKATLTADKSSSTAYMQLSSLTSEDSAVYYCARSTYYGGDWYFNVWGAGTTVTVSA
VL: QIVLSQSPAILSASPGEKVTMTCRASSSVSYIHWFQQKPGSSPKPWIYATSNLASGVPVRFSGSGSGTSYSLTISRVEAEDAATYYCQQWTSNPPTFGGGTKLEIK
- cell size (forward scatter) of CAR T cells after stimulation with Raji, Daudi or Rec-1 cells pre-incubated with rituximab, relative to no rituximab: > 85%
- cell size (forward scatter) of CAR T cells incubated with FL-18 cells at 200 µg/ml rituximab, relative to control: 73%
- proliferation (CFSE dilution) of Leu16-28-BB-z-tEGFR CAR T cells with Raji, Daudi, Rec-1, FL-18 targets, rituximab up to 200 µg/ml, relative to no rituximab: > 96%
